Laboratory results: the nanobody polyreactivity screen of Harvey et al. (2022)

Assay: yeast display, Sf9 membrane polyspecificity reagent, FACS + sequencing; frameworks hold sequencing errors
In short: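 A nanobody's polyreactivity label depends on the gate it was sorted from. Yeast display cells were stained with 10% biotinylated, detergent-solubilized Sf9 membrane reagent for 1 hour at 4 °C, enriched on streptavidin microbeads and sorted by FACS. The low and high (top ~1%) gates were set on anti-HA fluorescence for expression and streptavidin fluorescence for reagent binding.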

Sequence	polyreactivity (PSR sort gate)
QVQLVESGGGLVQAGGSLRLSCSASGNNFESYGMGWYRQAPGKERELVATINTSSGSTNYADSVKGRFTISRDNAKNTVYVQMNSLKPEDTAVYYCAAVFVEQGEDDYWGQGTQVTVSS	low polyreactivity
QVQLVESGGGLVQAGGSLRLSCSASGRIFFSYAMGWYRQAPGKERELVAAISRDGGTPYYADSVKGRFTISRDNAKNTVSLLLNSLKPEDTAVYYCADDWYLRRRIYGYWGQGTEVTVSS	high polyreactivity
QVQLVESGGGLVQAGGSLRLSCSASGRIFKRYAMGWYRQSPGKERELVAAFTRGGSTNYADSVKGRFTISRDNAKNTVYLQMNSLKPEDTAVYYCNRYGGTRYWGRGTQVTVSS	high polyreactivity
QVQLVESGGGLVQAGGSLRLSCSASGRIFPRYAMGWYIQEPGKEMELFATISSGGSTYYADSVKGRFTITRDNAKNTVYLQMNSLKPEDTADYYCADRKGQYTVINGMDYWGQGTQVTVSS	low polyreactivity
QVQLVESGGGLVQAGGSLRLSCSASGRIFRINAMGWYRQAPGKDRELVASISRRGGNTYYADSVKGRFTISRDNAKNTVYLQMNSLKPEDTAVYYCAADVHTPALYTYAAGDYWGQGTQVTVSS	low polyreactivity
QVQLVESGGGLVQAGGSLRLSCSASGRTFNKYAMGWYRQAPGKERELVAAISRSGGSTYYADSVKGRFTISRDNAKNTVYLQMNSLKPEDTAVYYCNAAYFGQHVGTGFDYWGQGTQVTVSS	high polyreactivity
QVQLVESGGGLVQAGGSLRLSCSASGRTSVLYAMGWYRQAPGKEREFVAAITWNSGSTYYADSVKGRFTISRDHAKNTVYLQMISLKPEDTAVYYCNADYYFSSYRSTYDYWGQGTQVTVSS	low polyreactivity
QVQLVESGGGLVQAGGSLRLSCSASGSIFAYYAMGWYRQAPGKERELVAAISKSAGSTYYADSVKGRFTISRDNAKNTVYLQMNSLKPEDTAVYYCAAVVLGRRLGFRGDYNYWGQGTQVTVSS	high polyreactivity
QVQLVESGGGLVQAGGSLRLSCSASGSIFGYYGMGLYRQAPGKERELVATISWSGDSTNYADSVKGRFTISRDNAKNTVYLQMNSLKPEDTAVYYCAAEWHAGWGGWLRYRHYEYWGQRTQVTVSS	low polyreactivity
QVQLVESGGGLVQAGGSLRLSCSASGSIFKRNAMGWYRQAPGKERELVAAITTRGGRTYYADSVKGRFTISRDNAKNTVYLQLNSLKPEDTAVYFCAVVPAAGSGGYGYSRYDYWGQGSQVTVSS	high polyreactivity
QVQLVESGGGLVQAGGSLRLSCSASGSIFKYYTMGWYRQAPGKERELVASINGGGSTNYADSVKGRFTISRDNAKNTVYLQMNSLKPEDTAVYYCNARYWWQDGYWGQGTQLTVSS	high polyreactivity
QVQLVESGGGLVQAGGSLRLSCSASGSIFPYYAMGWSRQAPGKERELVAAISRSGGSTYYADSVKGRFTISRDNAKNTVYLQMNSLKPEDTAGYYCAAVGGVRPQQHYYYRYDYWGQGTQVTVSS	high polyreactivity
QVQLVESGGGLVQAGGSLRLSCSASGSIFSANVMGWYRQAPGKDRELVAAIRRGGTTYYADSVKGRFTISRDNAKNTVYLQMNSLKPEDNAVYYCATDGIFGSYLRFEVAYDYWGQGTQVTVSS	low polyreactivity
QVQLVESGGGLVQAGGSLRLSCSASGSIFVWYDMGWYRQAPGKERELVATISLSGVSTYYADSVKGRFTISRDNAKNTVYLQMNSLKPEDTAVYYCNKDDPVDGPLYFRKYDYWGQGTQVTVSS	low polyreactivity
QVQLVESGGGLVQAGGSLRLSCSASGSTFGDYAMRWYRQAPGKREFVAAISFSGGNTYYADSVKVRFTISRDNAKNTVYLQMNSLKPEDTAVYYCNADWDWFYSTGSLGFPDFYYWGQGTQVSVSS	low polyreactivity
QVQLVESGGGLVQAGGSLRLSCSASGSTFGRYVMGWYRQPPGKERELVAAISKNAGSTYYADSVKGRFTISRDNAKNTVYLQMNSLKPEDTAVYYCNTVYYWYSPLNYWGQGTQVTVSS	high polyreactivity
QVQLVESGGGLVQAGGSLRLSCSASGSTFHYNAMGWYRQAQGKERELVAYISWRGASKYDADSVKGRFTISRDNAKNTVYLQMSSMKTEDTAVFFFNAVLTSYWYNSYKSRGDYWGQGTLVTVSS	high polyreactivity
QVQLVESGGGLVQAGGSLRLSCSASGSTFRVYAMGWYRQAPGKERELVAAISWSGGRTYYADSVKGRFTISRDNAKNTVYLQMNSLKPEDTAVYYCAADTYGRYDYWGQGTQVTVSS	high polyreactivity
QVQLVESGGGLVQAGGSLRLSCSASGSTIPVYAMGWYRQPPGKERELVAAITGSGARTYYADSVKGRFTFSRDNAKNTVYLQMNSLKPEDTAVYYCAKRTVIAVYGFPYRYGMNYWGQGTQVTVSS	high polyreactivity
QVQLVESGGGLVQAGGSLRLSCTASGIIFGTYAMGWYRQAPGKERELVAAISSSGVSTYYADSVKGRFTISRDNAKYTDYLQMNSLKPEDTAVYYCAAPLHYGYYYCGQGTQVTVSS	high polyreactivity
QVQLVESGGGLVQAGGSLRLSCVASGLTQPSAIGWYRHAPGKERELVPRISWRGASTYYADSVKGRFTISRDTAKNNFYLQINSLKPEDTAVYYCAARSTIQRRGYYGYRVGRSEYGYWGQGTQVTVSS	low polyreactivity
QVQLVESGGGLVQAGGSLRLSCVASGRIFLTYAMGWYRQAPGKERELVAAISYSGASTYYADSVKGRFTISRDNAKNTVYLQMNSLKPEDTAVYYCATERVGTPRMNYWGQGTQVTLSS	high polyreactivity

Sequence	polyreactivity (PSR sort gate)
QVQLVESGGGLVQAGGSLRLSCVASGRTFGNKAMGWYRQAPGKERELVAAITSGGSTNYADSVKGCFTISRDNAKNTVYLQMNSLKPEDTAVYYCAAKQYRAGGGYWGQGTQVTVSS	high polyreactivity
QVQLVESGGGLVQAGGSLRLSCVASGRTFSRYAMGWYRQAPGKERELVAAISRRGGSTYYADSVKGRFTISRDNAKNTVYLQMNRLKPEDTAVNYCAAGYITCGSGNWVVTPYDYWGQGTQVTVSS	high polyreactivity
QVQLVESGGGLVQAGGSLRLSCVPPDMGWYRQAPGKERELVAAISRGGITNYADSVKRRFTISRDNAKNTVYLQMNSLKPEDTAVYYCAAEYTYYSYGGNYDYWGQGTQVTVSS	low polyreactivity
QVQLVESGGGLVQAGGSLRLSFAACGSIFTVYTMGWYRQAPGKERELVAAINSRGGTTYYADSVKGRFTISRDTAKNTVYLQMNSLKPEDTAVYYCAADWGYKDFGYWGQGTQVTVSS	high polyreactivity
QVQLVESGGGLVQAGGSLRLSFAASGFTFTLYAMGLYRQAPGKEREFVAAITARGGSTYYADSVKGRFTISRDNAKNTVYLQMNSLKPEDTAVYYCNKEYGSRRYPYRYNYWGQGTQVTVSS	high polyreactivity
QVQLVESGGGLVQAGGSLRLSFAASGITFGYYDMGWYRQAPGKERELVASISSGGNTNYADSVKGRFTISRDNAKNTVYLQMNSLKPEDTAVYYCNVRYWGFYDYDYWGQGTQVTVSS	low polyreactivity
QVQLVESGGGLVQAGGSLRLSFAASGITFVRYAMGWYRQPPGKERALVAAISRSGTSTYSADSVKGRFTISRDNAKNTVYLQMNSLKPEDTAVYYCYVRRYDYWGQGTQVTVSS	high polyreactivity
QVQLVESGGGLVQAGGSLRLSFAASGLIFGYYTMGWYTQAPGKERELVAAITGIADSTYYADSVKGRFTISRDNAKNTVYLQMNSLKPEDTAVYYCAADKYVAEYDYWGQGTQVTVSS	low polyreactivity
QVQLVESGGGLVQAGGSLRLSFAASGLTFHYYAMGWYIQEPGKERELVAVISSGGSTYYAYSVKGRFTISRDNAKNTVYLQMNSLKPEDTAVYYCAALSSRTYKTGYYTYDYWGQGTQVTVSS	low polyreactivity
QVQLVESGGGLVQAGGSLRLSFAASGRIFDVYAMGRYRQAPGKERELVAAITWSGGRTYYADSVKGRFTLSRDNAKNTVYLQMNSLKPEDTAVYYCAAEKPYVRGYLGTYDYWGQGTQVTVSS	low polyreactivity
QVQLVESGGGLVQAGGSLRLSFAASGRIFGWYAIGGYRKAAGTEREVVAAISTSGVRTYYADSVKGRFTISRDNAKITVYLQMKSLKPEDTAVYYCAARYIRAYSRDYWGQGTQVTVSS	high polyreactivity
QVQLVESGGGLVQAGGSLRLSFAASGRIFLYNTMGWYRQAPGKERELVARISWSGGSTKYADSVKGRFTISRDNAKNTVYLQMNSLKPEDTAVYYCNAGYFTEYNSWGQGTQVTVSS	high polyreactivity
QVQLVESGGGLVQAGGSLRLSFAASGRTFHGYAMGWYRQAPGKERELVARINWSDGRTYYADSVKGRFTISRDNAKNTVYLQMNSLKPEDTAVYYCAADKTVSYAPAWYYYWGQGTHVTVSS	low polyreactivity
QVQLVESGGGLVQAGGSLRLSFAASGSIFYRNSMGWYRQAPGKERELVAAISWSGASTYYADSVKGRFTISRDNAKNTVYLQMNSLKPEETAVYYCYAGKYAYLWLKLFDPKLDYWGQGTQVTVSS	low polyreactivity
QVQLVESGGGLVQAGGSLRLSFAASGSTFRYNTRGWYRQAPGKEREVVATITWDTDSTYYADSVKGRFTISRDNAKNTVYLQMNSLKPEDTAVYYCAAETTWADKSYHYLQEYNYCGQGTQVTVSS	low polyreactivity
QVQLVESGGGLVQAGGSLRLSFAASGSTFTINAMGWYRPAPGKERELVAAINDGHDTYYADSVKGRFTISRDNAKNTVYLQMNSLKPEDTAVYFCAADIIYGYEVYTYTSDYWGQGTQVTVSS	low polyreactivity
QVQLVESGGGLVQAGGSLRLSFAASGSTFWLYPMGWYRQATAKDREFVATISSSTTYYADSVKGRFTISRDNAKNTVYLQMNCLKAEDTEVYYCAKQHGLTSGGSRTDYWGQGTQGTVSS	low polyreactivity
QVQLVESGGGLVQAGGSLRLSFAASGYTFAGNAMGWYRQAPGKERELVAVITYSGVSTYYADSVKGRFTISRDNAKNTVYLQMNSLKPEDTAVYYCNAVRERYASDYWGQGTQVTVSS	low polyreactivity
QVQLVESGGGLVQAGGSLRLSFADSGLILNFYAKSSYRQAPGKERELVAAISWNAGSTYYADSVKGRFTISREKSMNTGYVQMKSLKPEDTAVYYCAVLPGRYDKTASHYDYWGQGTQVTVSS	low polyreactivity
QVQLVESGGGLVQAGGSLRLSFADSGYNFPLYAMGWYIQAPGKERELVADINIGGASTYYADSVKGRFTISRDNAKNTFYLQMNSLKPEDTAVYSCAARDCYQRRQRRYDYWGQGTQVTVSS	low polyreactivity
QVQLVESGGGLVQAGGSLRLSFDASGFISGDNTMGWYRQAPGKERELVAAINSGGSTYYADSVKGRFTISRDNAKNTFYLQMNSLKPEDTAVYYCAADYSTWLRAYDFWGQGTQVTVSS	low polyreactivity
